Experimental findings from patent publication US20180327803A1 are described below.

The target of test [1] is human IgG1 antibody (#I5154; Sigma-Aldrich) (human). Put plainly: ELISA. (In general: An ELISA detects its analyte on a solid surface through an enzyme-linked reagent.)
Test [2] deals with human IgG2 antibody (#I5404; Sigma-Aldrich) (human). Put plainly: ELISA.
Test [3] deals with human IgG3 antibody (#I5654; Sigma-Aldrich) (human). Put plainly: ELISA.
Test [4] deals with human IgG4 antibody (#I4639; Sigma-Aldrich) (human). Put plainly: ELISA.
Test [5] deals with human serum-derived IgG polyclonal antibody (#I4506; Sigma-Aldrich) (human). Put plainly: ELISA.
For test [6] the target is unchanged. The test is described as follows: SPR, lysate, human IgG chip. (In general: In SPR one partner is held on a chip, and binding of the other changes the refractive index at the surface.)
Test [7] has the same target. The test is described as follows: scFv-immobilized HiTrap NHS column.
Test [8] concerns the target human IgG1 antibody (#I5154; Sigma-Aldrich) (human). Put plainly: SPR, single cycle kinetics, IgG1 chip.
The target of test [9] is human serum-derived IgA polyclonal antibody (#I4036; Sigma-Aldrich) (human). The test is described as follows: ELISA.
The target is the same in test [10]. Put plainly: SPR, lysate, human IgA chip.

B1: R3-26 (scFv, not shown: small tags and cut ends)
scFv: QEQLVESGGGLVKPGGTLTLTCTVSGIDLSSYAMSWVRQVPGKGLEWIGIIGSGGGTAYANWAKGRFTISKTSSTTVDLKMTSLTTEDTATYFCATDYGIYGYAYGHLWGPGTLVTVTSGGGGSGGGGSGGGGSELVMTQTASPVSAAVGGTVTIKCQASQSISTALAWYQQRPGQPPKLLIYDASTLASGVSSRFKGSGSGTEFTLTISDLECADAATYYCQTYFGSDTDNAFGEGTEVEITGS
By koff is commonly meant a measure of how fast the partners let go of each other. Consider B1, for which the OD worked out at 3.1 in test [1]; 3.04 in test [2]; 3.14 in [3]; 3.16 in test [4]; 3.1 in [5]. Further, the koff in test [6] turned out to be 0.000571 s⁻¹.

B2: R3-26 rabbit-derived single-chain antibody-His (scFv)
scFv: QEQLVESGGGLVKPGGTLTLTCTVSGIDLSSYAMSWVRQVPGKGLEWIGIIGSGGGTAYANWAKGRFTISKTSSTTVDLKMTSLTTEDTATYFCATDYGIYGYAYGHLWGPGTLVTVTSGGGGSGGGGSGGGGSELVMTQTASPVSAAVGGTVTIKCQASQSISTALAWYQQRPGQPPKLLIYDASTLASGVSSRFKGSGSGTEFTLTISDLECADAATYYCQTYFGSDTDNAFGEGTEVEITGSHHHHHH
By Kd is commonly meant the constant that tells how readily two partners part at equilibrium. Read a low Kd as a tighter complex. Broadly, the kon is the second-order rate constant of association. A high value points to faster complex formation. In test [7], B2 gave an amount of IgG adsorbed to the column and eluted of 5.3 mg; a percent of supplied IgG adsorbed to the column and eluted of 53%. In [8], this molecule registered a Kd of 2.1 nM, a koff of 4.3e-05 s⁻¹ and a kon of 21000 M⁻¹ s⁻¹.

B3: R3-58 (scFv, not shown: small tags and cut ends)
scFv: QQQLMESGGRLVTPGGSLTLTCTVSGIDLNSYAMGWVRQAPGKGLEYIGIIRNSGNTYYASWAKGRFTISKTSSTTVDLKMTSLTTEDTATYFCARYSGDNGGALNLWGPGTLVTVTSGGGGSGGGGSGGGGSELVMTQTAASVSGPVGGTVTIKCQASEFIRNYLAWYQQKPGQPPKLLIYTTSNLASGVPSRFSGSGSGTEYTLTISDLECADAATYYCQNYYDISTYGNAFGGGTEVVVIKGS
Regarding B3, the OD turned out to be 3.14 in test [1]; 3.08 in test [2]; 3.11 in test [3]; 3.17 in [4]; 3.05 in test [5]. Further, the koff in [6] worked out at 0.000742 s⁻¹.

B4: R2-16 (scFv, not shown: small tags and cut ends)
scFv: QSVKESGGRLVTPGTPLTLTCTVSGFSLSSYAMGWVRQAPGKGLEYIGIISSSGSTYYASWAKGRFTISKTSTTVDLKITSPTTEDTATYFCARYSGDNGGALNLWGPGTLVTVTSGGGGSGGGGSGGGGSELDLTQTAASVSEPVGGTVTISCQSSQHIRSYLAWYQQKPGQPPKLLISAASTLASGVSSRFKGSGSGTEFTLTISDLECADAATYYCQRYYDIRNYGNGFGGGTEVEITGS
For B4, the OD is 3.12 in test [1] and 3.05 in [3]. Besides, the off-rate (koff) in test [6] turned out to be 0.000838 s⁻¹.

B5: R1-7 (scFv, not shown: small tags and cut ends)
scFv: QSLEESGGRLVTPGTPLTLTCTVSGIDLRRYAMGWVRQAPGKGLQWIGIIASGNTDYASWAKGRFTISATSTTVDLKITSPTTEDTATYFCARYSGDNGGTLNLWGPGTLVTVTSGGGGSGGGGSGGGGSELVMTQTAASVSEPVGGTVTIKCQASQSISSYLAWYQQKPGQPPKLLIYAASNLASGVSSRFKGSGSGTEFTLTISDLECADAATYYCQSYYSISSYGNTFGGGTEVEITGS
Consider B5, for which, in test [1], the OD came out at 3.12. The same molecule displayed a dissociation rate constant (koff) in test [6] of 0.00175 s⁻¹.

B6: IgA R3-18 (scFv, not shown: small tags and cut ends)
scFv: QSLEESGGRLVTPGTPLTLTCTVSGIDLSSNAMTWVRQAPGEGLEWIGTISTGGSTYFASWAKGRFTISKTSTTVDLKITSPTTEDTATYFCATRYDSYGYAYNYWFGTLWGPGTLVTVTSGGGGSGGGGSGGGGSELVMTQTAASVSEPVGGTVTIKCQASQNINNELAWYQQKPGQRPKLLIYDASKLASGVPSRFSGSGSGTEFTLTISGMQCDDAATYYCQSTYYDGNYVYAFGGGTEVDVKGS
Consider B6, for which the OD in [1] was 3.09; in [2] it was 3.09; in test [3], 2.99; in test [4], 3.08; in test [9], 3.03. Moreover, the koff in test [10] is 0.000181 s⁻¹.

B7: R2-18 (scFv, not shown: small tags and cut ends)
scFv: QSLEESGGRLVTPGTPLTLTCTVSGIDLSSNAMTWVRQAPGEGLEWIGTISTGGSTYFASWAKGRFTISKTSTTVDLKITSPTTEDTATYFCATRYDSYGYAYNYWFGTLWGPGTLVTVTSGGGGSGGGGSGGGGSELVMTQTAASVSEPVGGTVTIKCQASQNINNELAWYQQKPGQRPKLLIYDASKLASGVPSRFSGSGSGTEFTLTISGMQCDDAATYYCQSTYYDGNYVYAFGGGTEVDVKGS
As for B7, the values for the OD in [1], in [3] and in test [9] were 3.11, 3.08 and 3.11, respectively. In test [6], this molecule returned a koff of 0.0008 s⁻¹.

B8: R3-8 (scFv, not shown: small tags and cut ends)
scFv: QSLEESGGRLVTPGTPLTLTCTVSGIDLSSNAMTWVRQAPGEGLEWIGTISTGGSTYFASWAKGRFTISKTSTTVDLKITSPTTEDTATYFCATRYDSYGYAYNYWFGTLWGPGTLVTVTSGGGGSGGGGSGGGGSELVMTQTAASVSEPVGGTVTINCQASQSISDELAWYQQKPGQRPKLLIYDASDLASGVPSRFSGSGSGTEFTLTISGVQCDDAATYYCQSAYYDGRYVYAFGGGTEVEVTGS
Take B8: the OD is 3.03 in test [1]; 3.02 in [2]; 3.06 in test [3]; 3.09 in test [4]; 3.06 in test [9]; 3.01 in test [5]. Moreover, in test [6], the koff worked out at 0.00088 s⁻¹.

B9: R3-23 (scFv, not shown: small tags and cut ends)
scFv: QSVKESEGRLVTPGTPLTLTCTVSGFSLSRYAVSWVRQAPGKGLEWIGIIGSGGSTSYATWARGRFTISKTSTTVDLKITSPTTEDTVTYFCGSYYDSHGYAYVSLWGPGTLVTVTSGGGGSGGGGSGGGGSELVLTQTPSPVSGAVGGTVTINCQASQSISTALAWYQQKPGQPPKLLIYSASTLASGVSSRFKGSGSGTGFTLTISDLECADAATYYCQSYYGSSSDNAFGGGTEVVIKRS
As to B9, the OD is 3.06 in [1]; 3.06 in test [2]; 3.02 in test [3]; 3.06 in test [4]; 3.04 in [5]. In [6], this molecule showed a koff of 0.000408 s⁻¹.

B10: IgA R3-1 (scFv, not shown: small tags and cut ends)
scFv: QSVKESGGRLVTPGTPLTLTCTVSGIDLSSNAMSWVRQAPGEGLEWIGTISTVGKTYFASWAKGRFTISKTSTTVDLRITSPTTEDTATYFCATRYDSYGYAYNYWFGTLWGPGTLVTVTSGGGGSGGGGSGGGGSELDLTQTPPSVSGAVGGTVTIKCQASENINSELAWYQQKPGQRPKLLIYDASKLASGVPSRFSGSGSGTEYTLTISGMQCDDAATYYCQSTYYDGNYVYAFGGGTEVDVTRS
For the molecule B10, the OD stood at 3.09 in test [1]; 3.07 in [2]; 3.02 in test [3]; 3.07 in test [4]; 3 in test [9]. For the same molecule, the koff in [10] came out at 9.88e-05 s⁻¹.

B11: R3-75 (scFv, not shown: small tags and cut ends)
scFv: QSVKESGGRLVTPGTPLTLTCTVSGIDLSSNAMSWVRQAPGEGLEWIGTISTVGKTYFASWAKGRFTISKTSTTVDLRITSPTTEDTATYFCATRYDSYGYAYNYWFGTLWGPGTLVTVTSGGGGSGGGGSGGGGSELDLTQTPPSVSGAVGGTVTIKCQASENINSELAWYQQKPGQRPKLLIYDASKLASGVPSRFSGSGSGTEYTLTISGMQCDDAATYYCQSTYYDGNYVYAFGGGTEVDVTRS
Turning to B11, the OD was 3.05 in test [1]; 3.04 in test [2]; 3.12 in [3]; 3.11 in [4]; 3.06 in test [9]; 3.01 in test [5]. The molecule also displayed a koff in [6] of 0.000278 s⁻¹.

B12: R1-27 (scFv, not shown: small tags and cut ends)
scFv: QQQLMESGGGLVTPGTPLTLTCTVSGIDLRRYAMGWVRQAPGKGLQWIGIIASGNTDYASWAKGRFTISATSTTVDLKITSSTTEDTATYFCARYSGDNGGTLNLWGPGTLATVTTGGGGSGGGGSGGGGSELVMTQTAASVSEPVGGTVTIKCQASEHIRNYLAWYQQKPGQPPKLLIYTTSNLASGVPSRFSGSGSGTEYTLTISDLECADAATYYCQNYYDISTYGNTFGGGTEVDVKGS
For B12, the OD was 3.07 in [1] and 3.08 in test [3]. In test [6], the koff worked out at 0.000859 s⁻¹.
